The record followed here is PMC4219626 (Nature structural & molecular biology, 2014).

For orientation: stoichiometry N means a count of units in the complex or per binding partner.

To fix the notation:
B1: Rrn11 (recombinant) (natural protein, S. cerevisiae, UniProt Q04712 1-507, looked up)
chain: MFEVPITLTNRKFAQRRKLKYQYINYISRRFDRISKKSTTTDSLPTPENSAAENNDEEEGQNSEAGTYRRSVLQQKKRRRERHWRSVVGEIYSTTESETDSQEEETEEGGEHDTGIDKEDSDEERKFWKKYEKPEKSFEIWRTVSSQNKQPINKQKMTYHNFKKIEKIPLRKMEIPLLHCTKENKLYFQSISRGLEPLKTSTSEVRNYRTRHIVTLTDLLHLNVSRHNWSLAYKIFATLIRIPGVQIKSLWGIGVEILDNLSNSSSGLDFLQWMCQIYSSKSRFVQNINYRSIVPPFQTGSRTHTAKFAITYLWSSLINCQKSMEPSSNIIDKPFDTENDLLQELIDKISEWVLTPPFMEDAEVWFIYASCHLLKADTLSRQFVNDNKNNDLIGLDRDIKINQVIKHIHYVRTFLKICLDKGGFAVPSRLIENQLKSFESRLYGEAQDIQERDVANVYDSIDNSSVENSFGDVYETNAEFLDTQLMDLSPEDNGLDEMHYSDEDSSE
B2: Rrn7 (recombinant, His6-tagged) (natural protein, S. cerevisiae, UniProt P40992 1-514, looked up)
chain: MSTFIRGPICGTDNCPSRLWRIIDGRRTCQYGHVMEGDVEFNDDEDDLNGLGAGVITRRLNLTTNATGSFQSSQLTNSQLLQQQQRQSHKKFKKLIGHEAKLLFLKSFQFILKRQIRWLITEMRFPKEFEHVAKIIWLKILKTINDQPQEELKLQLHMTSTISILYLASTHLSLPVYTCDYIKWICTAKMPYFQASEILPKSWRIQLPNYYVSILEGSISPFNGQLYNKIALTCGMIHFKEFFNSEISCQGLLLKLVMQCALPPEFYFYTKQVIEFEETDIRNLTLWERTDERHTGRVSNHAELRVLSYFMLTINWMLSFDRDRQYPLKWILSLTESLTQRTTTSESIGRNIVKVVYPDKPTSSDYFQWSEEETLEFLKWMEKQFLPTQTKSLHNENGSMEMTIDQKIARRKLYKIFPLDREANHDGEFNDSTHQLTFIEDLQERYAKQTPFFESNKIRDSLNYQEANPPARKEAIGRLLTHIASQLLVDFAISKEQLKDCISRIKNACLHRMN
B4: Rrn6 (recombinant, His6-tagged) (natural protein, S. cerevisiae, UniProt P32786 1-894, looked up)
chain: MSEGQIPSSDVLGSQLGVGVQGASLYCPQENYTTKKQEKPQWLRPVDDTLAEDALDLHIVVKSLLCDTAIRYISDDKVLQESDADDDLITSDIDEDTDNQGDTSIVVNPVIPVVPKDVHFFKKVDVGNDSMFGVNCDTPVSFQDYIPSDLLRNLDDTLQESTNSSRPMQDAFFWDPTVANRLDSQYIQTASDLRNYRDGTEIIAYASGKTGSVLNIAVLTRQNTLHLNRHNNVTSIELHSPIKSIKIPGASESIGRRSNLVGIITENSFQIFRIESVHSRSCDVMVSSSEPLYFVEIDDLQVVDFAFNPWDLQQFAIIDIKGNWSIGRIPKNFNNNNKRKLQLIDNLHGTIFDPEELSSWKRIEWFSHFQKILVFDRSKMIEIDFMNNWQTEVVQAKAWSNIRDYKRIDDKNGILLTSREIIIVGASESNDPVRRISWKHDLDPDDTTLRITVQKVKKPDHILLVAFVYSMRHKRIYMHVFSHRKANLFQSLGCSTVLEIPGGTPTGIETILTLDHIDDESRREEDADENFELVVDFLVKLRNSSEVYYYALSNTQNSEPNKQETPIIVDHPEWASLFNNADEREKESIGALVSQIKLKERERISRVQNLIEHENSHDEDKYLQDLGYRLSIATNELLESWQKTKDESILSGSLSHSKLKNLLENSDSFASIPEFSSLLDQFFQYYQDQDVTFIGFEKLLHLFLHEDVPGLDIFYNKLLQCWVLVSPQAELLTKEIVKDIIWSLARLEKPSLFEPIQNEISRSLSGPYQDIISSWDMDDINEEDESNEFNFDSQFSAPFNGRPPFNLNSQSQIPTIKSSQSSGLARRKRILKTQSQKATPLSQSTQNLSVLPDSMTPAFTLMQPPSSQISFVNDSQPRNSQKAKKKKKRIRGFG

Experiment [1] deals with B2. Description: cross-linking.
Experiment [2] deals with B4. Description: cross-linking.
In experiment [3] the target is B4. Description: co-purification.
Experiment [4] concerns the target B2. Description: cross-linking. The source holds these as a separate data set.
The experiment “Rrn11 (recombinant)” addresses B1. Briefly: cross-linking.
The target of experiment [5] is B4. Description: cross-linking. This is another data set of the same source.

As for B1, the “stoichiometry N” value in experiment [1] and in experiment [2] was 1 in each case.
Consider B2, for which the binding result in experiment [3] is on record as “binds”.

B3: TATA binding protein (TBP) (natural protein, S. cerevisiae, UniProt P13393 1-240, looked up)
chain: MADEERLKEFKEANKIVFDPNTRQVWENQNRDGTKPATTFQSEEDIKRAAPESEKDTSATSGIVPTLQNIVATVTLGCRLDLKTVALHARNAEYNPKRFAAVIMRIREPKTTALIFASGKMVVTGAKSEDDSKLASRKYARIIQKIGFAAKFTDFKIQNIVGSCDVKFPIRLEGLAFSHGTFSSYEPELFPGLIYRMVKPKIVLLIFVSGKIVLTGAKQREEIYQAFEAIYPVLSEFRKM
For the molecule B3, the binding result (in experiment [4]; with Rrn11 (recombinant); in experiment [5]) was “binds” each time.
For the molecule B4, the “stoichiometry N” value in experiment [1] was 1.
